{"source": "paper PMC11509957", "about": "“A New Activity Assay Method for Diamine Oxidase Based on Matrix-Assisted Laser Desorption/Ionization Time-of-Flight Mass Spectrometry” (Molecules, 2024)", "proteins": {"B1": {"name": "Pea seedling amine oxidase (PSAO); diamine oxidase (DAO) (Lathyrus oleraceus) (protein)", "chain": "VTPLHVQHPLDPLTKEEFLAVQTIVQNKYPISNNRLAFHYIGLDDPEKDHVLRYETHPTLVSIPRKIFVVAIINSQTHEILINLRIRSIVSDNIHNGYGFPILSVDEQSLAIKLPLKYPPFIDSVKKRGLNLSEIVCSSFTMGWFGEEKNVRTVRLDCFMKESTVNIYVRPITGITIVADLDLMKIVEYHDRDIEAVPTAENTEYQVSKQSPPFGPKQHSLTSHQPQGPGFQINGHSVSWANWKFHIGFDVRAGIVISLASIYDLEKHKSRRVLYKGYISELFVPYQDPTEEFYFKTFFDSGEFGFGLSTVSLIPNRDCPPHAQFIDTYVHSANGTPILLKNAICVFEQYGNIMWRHTENGIPNESIEESRTEVNLIVRTIVTVGNYDNVIDWEFKASGSIKPSIALSGILEIKGTNIKHKDEIKEDLHGKLVSANSIGIYHDHFYIYYLDFDIDGTHNSFEKTSLKTVRIKDGSSKRKSYWTTETQTAKTESDAKITIGLAPAELVVVNPNIKTAVGNEVGYRLIPAIPAHPLLTEDDYPQIRGAFTNYNVWVTAYNRTEKWAGGLYVDHSRGDDTLAVWTKQNREIVNKDIVMWHVVGIHHVPAQEDFPIMPLLSTSFELRPTNFFERNPVLKTLSPRDVAWPGCSN", "notes": "native enzyme purified to homogeneity from 7-day-old etiolated pea seedlings (roots and cotyledons removed); homodimer, 72 kDa subunit; Cu(II) and topaquinone"}}, "assay_in_all_cases": "purified protein", "type_in_all_cases": "biochemical, Lathyrus oleraceus", "key": {"[1]": {"substrate": "NCCCCN", "conditions": "0.1 mol/L potassium phosphate pH 7.0, 30 °C, O2 co-substrate"}, "[2]": {"substrate": "NCCCCCN", "conditions": "0.1 mol/L potassium phosphate pH 7.0, 30 °C, O2 co-substrate, excess substrate inhibition above 500 µmol/L"}, "[3]": {"substrate": "N=C(N)NCCCCN", "conditions": "0.1 mol/L potassium phosphate pH 7.0, 30 °C, O2 co-substrate"}, "[4]": {"substrate": "NCCC(O)CN", "conditions": "0.1 mol/L potassium phosphate pH 7.0, 30 °C, O2 co-substrate"}, "[5]": {"substrate": "NCCCCCCN", "conditions": "0.1 mol/L potassium phosphate pH 7.0, 30 °C, O2 co-substrate, excess substrate inhibition above 500 µmol/L"}, "[6]": {"substrate": "NCC1CCNCC1", "conditions": "0.1 mol/L potassium phosphate pH 7.0, 30 °C, O2 co-substrate"}}, "data": [{"protein": "B1", "values": [{"measurement": "Km", "setting": "[1]", "value": "289 ± 15", "unit": "µM"}, {"measurement": "kcat", "setting": "[1]", "value": 47.4, "unit": "s⁻¹"}, {"measurement": "kcat/Km", "setting": "[1]", "value": 164000, "unit": "M⁻¹ s⁻¹"}, {"measurement": "Km", "setting": "[2]", "value": "148 ± 8", "unit": "µM"}, {"measurement": "kcat", "setting": "[2]", "value": 60.9, "unit": "s⁻¹"}, {"measurement": "kcat/Km", "setting": "[2]", "value": 411000, "unit": "M⁻¹ s⁻¹"}, {"measurement": "Km", "setting": "[3]", "value": "446 ± 23", "unit": "µM"}, {"measurement": "kcat", "setting": "[3]", "value": 8.4, "unit": "s⁻¹"}, {"measurement": "kcat/Km", "setting": "[3]", "value": 18800, "unit": "M⁻¹ s⁻¹"}, {"measurement": "Km", "setting": "[4]", "value": "589 ± 33", "unit": "µM"}, {"measurement": "kcat", "setting": "[4]", "value": 4.9, "unit": "s⁻¹"}, {"measurement": "kcat/Km", "setting": "[4]", "value": 8320, "unit": "M⁻¹ s⁻¹"}, {"measurement": "Km", "setting": "[5]", "value": "95 ± 7", "unit": "µM"}, {"measurement": "kcat", "setting": "[5]", "value": 13, "unit": "s⁻¹"}, {"measurement": "kcat/Km", "setting": "[5]", "value": 137000, "unit": "M⁻¹ s⁻¹"}, {"measurement": "Km", "setting": "[6]", "value": "618 ± 24", "unit": "µM"}, {"measurement": "kcat", "setting": "[6]", "value": 4.2, "unit": "s⁻¹"}, {"measurement": "kcat/Km", "setting": "[6]", "value": 6800, "unit": "M⁻¹ s⁻¹"}]}]}
